Source: patent publication US20210221869A1

Molecular target: M22 antibody (thyrotropin receptor autoantibody)
Experiment: M22-blocking ELISA (KRONUS kit): fusion protein in 2-fold dilutions pre-incubated with peroxidase-M22, then added to the kit plate

- IC50: 3 mg/L
Substance: TSHR 21-282 D43A (N01) (Fc fusion)
